Reference: patent US12662541B2, “Antibody-drug conjugates against the receptor tyrosine kinase EphA5” (Rutgers, The State University of New Jersey, priority 2021, dated 2026)
Changes are numbered by the printed parent chain.

B1: VH2/VK2: humanized anti-EphA5 antibody, VH SEQ ID NO:3, VL SEQ ID NO:10 (antibody, V domains shown)
VH: EVTLVESGGGLVQPGGSLKLSCAASGFTFSTFGIHWVRQAPGKGLEWVAYISGASTTIYYADTVKGRFTISRDNSKNTLYLQMNSLRSEDTAMYYCARYGTSFPYGLDYWGQGTLVTVSS
VL: DIVMTQSPDSLAVSLGERATINCKASQSVDYDGDSYMNWYQQKPGKAPKLLIYGASNLESGIPDRFSGSGSGTDFTLTISRLEPEDAASYYCQQSNEDPFTFGQGTKLEIK
B2: VH2/VK4: humanized anti-EphA5 antibody, VH SEQ ID NO:3, VL SEQ ID NO:12 (antibody, V domains shown)
VH: B1 VH
VL: B1 VL with A25S
B3: VH4/VK4: humanized anti-EphA5 antibody, VH SEQ ID NO:5, VL SEQ ID NO:12; lead variant (antibody, V domains shown)
VH: B1 VH with T3Q, S88A, M93V
VL: B1 VL with A25S
B4: VH3/VK2: humanized anti-EphA5 antibody, VH SEQ ID NO:4, VL SEQ ID NO:10 (antibody, V domains shown)
VH: B1 VH with T3Q
VL: B1 VL
B5: VH2/VK1: humanized anti-EphA5 antibody, VH SEQ ID NO:3, VL SEQ ID NO:9 (antibody, V domains shown)
VH: B1 VH
VL: B1 VL with D9G, P84E
B6: VH2/VK5: humanized anti-EphA5 antibody, VH SEQ ID NO:3, VL SEQ ID NO:13 (antibody, V domains shown)
VH: B1 VH
VL: B1 VL with A25S, S89V
B7: VH1/VK1: humanized anti-EphA5 antibody, VH SEQ ID NO:2, VL SEQ ID NO:9 (antibody, V domains shown)
VH: B1 VH with L18R, L115S
VL: B1 VL with D9G, P84E
B8: VH1/VK2: humanized anti-EphA5 antibody, VH SEQ ID NO:2, VL SEQ ID NO:10 (antibody, V domains shown)
VH: B1 VH with L18R, L115S
VL: B1 VL
B9: VH3/VK1: humanized anti-EphA5 antibody, VH SEQ ID NO:4, VL SEQ ID NO:9 (antibody, V domains shown)
VH: B1 VH with T3Q
VL: B1 VL with D9G, P84E
B10: VH3/VK3: humanized anti-EphA5 antibody, VH SEQ ID NO:4, VL SEQ ID NO:11 (antibody, V domains shown)
VH: B1 VH with T3Q
VL: B1 VL with S89V
B11: VH1/VK5: humanized anti-EphA5 antibody, VH SEQ ID NO:2, VL SEQ ID NO:13 (antibody, V domains shown)
VH: B1 VH with L18R, L115S
VL: B1 VL with A25S, S89V
B12: VH5/VK4: humanized anti-EphA5 antibody, VH SEQ ID NO:6, VL SEQ ID NO:12; lead variant (antibody, V domains shown)
VH: B1 VH with T3Q, T63S, S88A, M93V
VL: B1 VL with A25S
B13: VH5/VK2: humanized anti-EphA5 antibody, VH SEQ ID NO:6, VL SEQ ID NO:10; lead variant (antibody, V domains shown)
VH: B1 VH with T3Q, T63S, S88A, M93V
VL: B1 VL
B14: VH1/VK4: humanized anti-EphA5 antibody, VH SEQ ID NO:2, VL SEQ ID NO:12 (antibody, V domains shown)
VH: B1 VH with L18R, L115S
VL: B1 VL with A25S
B15: VH3/VK5: humanized anti-EphA5 antibody, VH SEQ ID NO:4, VL SEQ ID NO:13 (antibody, V domains shown)
VH: B1 VH with T3Q
VL: B1 VL with A25S, S89V

Columns and labels:
[1] = target: T1, rhEphA5 antigen (Homo sapiens, UniProt P54756); assay: kd (1/s)
T1 construct: purchased R and D systems 3036-A5
Protocol: (§1) Table printed on a drawing sheet, FIG. 13
(§2) Head of the field: kd (1/s)
(§3) The patent's description of the figure: FIG. 13 is a table illustrating the single cycle kinetic parameters of chimeric (VH0/VK0) and humanized 11C12 variants (tested as cell culture supernatants) binding to rhEphA5 antigen as determined using the Biacore T200. The relative KD was calculated by dividing the KD of the humanized variant by that of the VH0/VK0 (top row) assayed in the same experiment. The variants marked with ‘*’ have KD values that are within two-fold of, or are better than, the chimeric antibody. The chimeric and selected variants marked in ‘#’ were identified as the main leads for purification. […]
(§4) Where the first naming reader finds the target: description_of_the_figure: humanized 11C12 variants (tested as cell culture supernatants) binding to rhEphA5 antigen as determined using the Biacore T200

[2] = target: T1, rhEphA5 antigen; assay: KD (M)
Protocol: as §1
Head of the field: KD (M)
as §3, §4

[3] = target: T1, rhEphA5 antigen; assay: ka (1/Ms)
Protocol: as §1
(§5) Head of the field: ka (1/Ms)
as §3, §4

[4] = target: T2, EphA5 antigen (Homo sapiens, UniProt P54756); assay: ka (1/Ms)
T2 construct: purchased R and D systems 3036-A5
Protocol: (§6) Table printed on a drawing sheet, FIG. 19
as §5
(§7) The patent's description of the figure: FIG. 19 is a table illustrating the Multi-cycle kinetic parameters of chimeric (VH0/VK0) and humanized variants (tested as purified proteins) binding to EphA5 antigen as determined using the Biacore T200. The relative KD was calculated by dividing the KD of the humanized variant by that of the VH0VK0 (first row) assayed in the same experiment. […]
(§8) Where the first naming reader finds the target: description_of_the_figure: humanized variants (tested as purified proteins) binding to EphA5 antigen as determined using the Biacore T200

[5] = target: T2, EphA5 antigen; assay: kd (1/s)
Protocol: as §6, §2, §7, §8

[6] = Thermal ramp stability (UNcle biostability platform, Sypro Orange and SLS); format: physicochemical
Excerpt: Thermal ramp stability experiments (Tm and Tagg) are well established methods for ranking proteins and formulations for stability. A protein's denaturation profile provides information about its thermal stability and represents a structural ‘fingerprint’ for assessing structural and formulation buffer modifications. A widely used measure of the thermal structural stability of a protein is the temperature at which it unfolds from the native state to a denatured state. For many proteins, this unfolding process occurs over a narrow temperature range and the mid-point of this transition is termed ‘melting temperature’ or ‘Tm’. To determine the melting temperature of a protein, UNcle measures the fluorescence of Sypro Orange (which binds to exposed hydrophobic regions of proteins) as the protein undergoes conformational changes.
Samples for each variant were formulated in PBS and Sypro Orange at a final concentration of 1 mg/mL. […] Samples were subjected to a thermal ramp from 25-95° C., with a ramp rate of 0.3° C./minute and excitation at 473 nm. Full emission spectra were collected from 250-720 nm, and the area under the curve between 510-680 nm was used to calculate the inflection points of the transition curves (Tonset and Tm). Monitoring of static light scattering (SLS) at 473 nm allowed the detection of protein aggregation, and Tagg (onset of aggregation) was calculated from the resulting SLS profiles. Thermal stability values determined lie in a broad range from 57.9 to 69.6° C. (Tm1), 55.1 to 65.2° C. (Tonset) and 65.6 to 70.2° C. (Tagg) with the humanized leads generally showing improved profiles when compared to the chimeric antibody. […] All humanized antibodies appear to have a higher Tm1, Tonset and Tagg compared to the chimeric antibody.

Molecule	kd [1]	Kd [2]	ka [3]	ka [4]	kd [5]	Tagg ranking among the leads (SLS profiles) [6]
B1	0.00126 s⁻¹	0.971 nM	1.3e+06 M⁻¹ s⁻¹	–	–	–
B2	0.00126 s⁻¹	0.917 nM	1.37e-06 M⁻¹ s⁻¹	–	–	–
B3	0.0014 s⁻¹	–	–	1.27e+06 M⁻¹ s⁻¹	0.00132 s⁻¹	–
B4	0.0013 s⁻¹	0.968 nM	1.34e+06 M⁻¹ s⁻¹	–	–	–
B5	0.0012 s⁻¹	0.89 nM	1.35e-06 M⁻¹ s⁻¹	–	–	–
B6	0.0014 s⁻¹	1.05 nM	1.34e+06 M⁻¹ s⁻¹	–	–	–
B7	0.00128 s⁻¹	1.02 nM	1.25e-06 M⁻¹ s⁻¹	–	–	–
B8	0.00126 s⁻¹	0.968 nM	1.31e-06 M⁻¹ s⁻¹	–	–	–
B9	0.00123 s⁻¹	0.884 nM	1.39e+06 M⁻¹ s⁻¹	–	–	–
B10	0.00133 s⁻¹	1.01 nM	1.32e+06 M⁻¹ s⁻¹	–	–	–
B11	0.00139 s⁻¹	1.12 nM	–	–	–	–
B12	0.00141 s⁻¹	–	1.35e-06 M⁻¹ s⁻¹	1.23e+06 M⁻¹ s⁻¹	0.00128 s⁻¹	highest Tagg values
B13	0.00123 s⁻¹	–	1.38e-06 M⁻¹ s⁻¹	1.34e+06 M⁻¹ s⁻¹	0.00125 s⁻¹	–
B14	0.00137 s⁻¹	1.1 nM	–	–	–	–
B15	0.00143 s⁻¹	1.1 nM	1.29e+06 M⁻¹ s⁻¹	–	–	–
